B1: unnamed (protein)
chain: MTAAAVSSRYYEETGPHAVTVEQGGPDHTLYYPSDLGAGGTQHPVVIWGNGTGATPETYDEGLRHFASWGFVVAAANTTQAGSGKEMLAGARFLIEEDQRSGSVFYGKIDETRIGAAGHSQGGGGAIAAGADPIVDTTIPIQPGPQGTVGDLHGPAFFISGQFDWIVPSSYVYSRYLGADHVPAVFGELRGADHFFPGDTRLRLIGATTAWFRFHLMADENARGIFFGPSSTCGICTDTEAWSKVDRNAKAQAIPG
B2: unnamed (protein)
chain: MNFPRASRLMQAAVLGGLMAVSAAATAQTNPYARGPNPTAASLEASAGPFTVRSFTVSRPSGYGAGTVYYPTNAGGTVGAIAIVPGYTARQSSINWWGPRLASHGFVVITIDTNSTLDQPSSRSSQQMAALRQVASLNGTSSSPIYGKVDTARMGVMGWSMGGGGSLISAANNPSLKAAAPQAPWNSSTNFSSVTVPTLIFACENDSIAPVNSHALPFYNSMSRNAKQFLEINGGSHSCANSGNSNQALIGKKGVAWMKRFMDNDTRYSTFACQNPNSTRVSDFRTANCS
B3: unnamed (protein)
chain: MDGVLWRVRTAALMAALLALAAWALVWASPSVEAQSNPYQRGPNPTRSALTADGPFSVATYTVSRLSVSGFGGGVIYYPTGTSLTFGGIAMSPGYTADASSLAWLGRRLASHGFVVLVINTNSRFDYPDSRASQLSAALNYLRTSSPSAVRARLDANRLAVAGHSMGGGGTLRIAEQNPSLKAAVPLTPWHTDKTFNTSVPVLIVGAEADTVAPVSQHAIPFYQNLPSTTPKVYVELDNASHFAPNSNNAAISVYTISWMKLWVDNDTRYRQFLCNVNDPALSDFRTNNRHCQ
B4: unnamed (protein)
chain: MRIRQALVAFCAAIAMVVAGPSYASALDSPYQRGPDPTEASVKAIAGPFAVDQVKATGHTGFGSGTIFYPKDEKGTFGTIAVSPGFISPEGLVHWYAKTLASHGFVVMAMGTFTVADPPPSRGDQLRAALDYMKTKSPVKDKVDPTRLGLSGHSMGGGGTLDAASKMPDLKAAVPLAPWYLTGGPVIPKVKAPTLVVGANIDFVAPMAIFATPFYKALTSPNKALLTLPGDHMTPFLLANPTLTKFAVSWFKRFLDDDTRYDQFLCPNPASYEGTCPLT
B5: unnamed (protein)
chain: MQTNPYARGPNPTAASLEASAGPFTVRSFTVSRPSGYGAGTVYYPTNAGGTVGAIAIVPGYTARQSSIKWWGPRLASHGFVVITIDTNSTLDQPESRSSQQMAALRQVASLNGTSSSPIYGKVDTARMGVMGWSMGGGGSLISAANNPSLKAAAPQAPWHSSTNFSSVTVPTLIFACENDSIAPVNSSALPIYDSMSQNAKQFLEIKGGSHSCANSGNSNQALIGKKGVAWMKRFMDNDTRYSTFACENPNSTAVSDFRTANCS
B6: unnamed (protein)
chain: MALVTALALVTGVGTAPAFADEIGQAPTAANITGDGSFSTSSSAIFGQSGFGGGTAYYPNTAGKYPVVAFAPGFLSDWNALNWLGPRVASWGFVVVGVNTNTPFDFPDARGDQLLAALNWAVNSAPAAVRDKADGSRRGVSGWSMGGGGTLEALAKDTTGTVKAGVPLAPWHTNKTWSKVTEPVFIIGGQNDSVAAPASHAIPFYNSLGGPKSYLERAGADHFFPTKSNGTVSRAVVSFFKRHVSADTRFTPFLCGFSGLDVSNFRSNSC

Substrate: not listed separately
Test: Proxy for plastic degradation [UPLC/UHPLC]
Conditions: pH 9; 30 °C
For B1, the “Proxy for plastic degradation” value was 13.9 µM.
In the case of B2, the “Proxy for plastic degradation” value is reported as 17.3 µM.
In the case of B4, the “Proxy for plastic degradation” value is reported as 11.2 µM.
For B6, the “Proxy for plastic degradation” value was 65.5 µM.

Same assay, conditions: pH 9; 40 °C
With B1 the “Proxy for plastic degradation” value was 14.7 µM.
In the case of B2, the “Proxy for plastic degradation” value is reported as 64.7 µM.
In the case of B4, the “Proxy for plastic degradation” value is reported as 22.8 µM.
In the case of B6, the “Proxy for plastic degradation” value is reported as 759 µM.

Same assay, conditions: pH 9; 50 °C
For B1, the “Proxy for plastic degradation” value was 10.6 µM.
For B2, the “Proxy for plastic degradation” value was 46.9 µM.
For B4, the “Proxy for plastic degradation” value was 44.2 µM.
For B6, the “Proxy for plastic degradation” value was 3600 µM.

Same assay, conditions: pH 9; 55 °C
In the case of B1, the “Proxy for plastic degradation” value is reported as 15.5 µM.
For B2, the “Proxy for plastic degradation” value was 27.4 µM.
In the case of B4, the “Proxy for plastic degradation” value is reported as 26.1 µM.
With B6 the “Proxy for plastic degradation” value was 596 µM.

Same assay, conditions: pH 9; 60 °C
For B1, the “Proxy for plastic degradation” value was 15.3 µM.
In the case of B2, the “Proxy for plastic degradation” value is reported as 17.4 µM.
For B4, the “Proxy for plastic degradation” value was 19.7 µM.
For B6, the “Proxy for plastic degradation” value was 167 µM.

Substrate: p-NP-C4
Test: not given
Conditions: pH 8; 65 °C
In the case of B3, the Km is reported as 1050 µM, the kcat is reported as 0.186 s⁻¹ and the kcat/Km is reported as 177 M⁻¹ s⁻¹.

Substrate: PET
Test: Proxy for plastic degradation [kcat/Km (catalytic efficiency)] (mM⁻¹s⁻¹)
Conditions: pH 8
For B3, the “Proxy for plastic degradation” value was 0.208.

Substrate: PET
Test: Proxy for plastic degradation [Released monomer concentration (HPLC/LC-MS) (TPA+MHET)]
Conditions: 30 °C
For B3, the “Proxy for plastic degradation” value was 44.7 µM.

Same assay, conditions: 40 °C
With B3 the “Proxy for plastic degradation” value was 115 µM.

Same assay, conditions: 50 °C
For B3, the “Proxy for plastic degradation” value was 628 µM.

Same assay, conditions: 55 °C
In the case of B3, the “Proxy for plastic degradation” value is reported as 2030 µM.

Same assay, conditions: 60 °C
For B3, the “Proxy for plastic degradation” value was 2450 µM.

Same assay, conditions: 65 °C
With B3 the “Proxy for plastic degradation” value was 3150 µM.

Substrate: p-NP-C4
Test: not given
Conditions: 50 °C; part of the chain shown
B5 gave a Km of 1570 µM, a kcat of 0.215 s⁻¹ and a kcat/Km of 137 M⁻¹ s⁻¹.

Same assay, conditions: 50 °C
Protein B6 has a Km of 1040 µM, a kcat of 0.27 s⁻¹ and a kcat/Km of 260 M⁻¹ s⁻¹.
